From patent publication US20150283275A1 (MorphoSys, published 2015)

Columns and labels:
Human CD38 [1] = molecular target: T1, Human CD38 (human, UniProt P28907 1-300); test: cell-based or functional assay
Human CD38 [2] = molecular target: T1, Human CD38; test: cell binding assay, apparently on OPM2 myeloma cells (method cited from Huber et al 2003)

B1: ^213Bi-anti-CD38-MAb (antibody, V domains shown)
VH: QVQLVESGGGLVQPGGSLRLSCAASGFTFSSYYMNWVRQAPGKGLEWVSGISGDPSNTYYADSVKGRFTISRDNSKNTLYLQMNSLRAEDTAVYYCARDLPLVYTGFAYWGQGTLVTVSS
VL: DIELTQPPSVSVAPGQTARISCSGDNLRHYYVYWYQQKPGQAPVLVIYGDSKRPSGIPERFSGSNSGNTATLTISGTQAEDEADYYCQTYTGGASLVFGGGTKLTVLG
Question: With B1 as the binder, how does the “γH2AX foci per cell (DNA double-strand breaks) 0.5 h after treatment, OPM2 cells compared to ARH77 cells” value (Human CD38 [1]) read?
Answer: ~2.5 fold

B2: CHX-A″-DPTA-anti-CD38-MAb (antibody, V domains shown)
VH: B1 VH
VL: B1 VL
notes: Anti-CD38-MAb MOR03087 (= MOR202) covalently coupled to SCN-CHX-A″-DTPA; also called Chelated anti-CD38-MAb; CHX-A″-DTPA conjugate of MOR03087 (MOR202)
Question: With B2 as the binder, how does the EC50 (Human CD38 [2]) read?
Answer: 16.4 nM
